One protein from PMC7059798, “Phosphoglucomutase Is Not the Target for Galactose Toxicity in Plants” (Frontiers in Plant Science, 2020) can be followed below.

Substrate in data set [1]: O=P(O)(O)O[C@H]1O[C@H](CO)[C@@H](O)[C@H](O)[C@H]1O
Description: purified protein. It counts as biochemical, Arabidopsis thaliana. The note with it: 50 mM TEAB pH 7.0, 2 mM MgCl2, 10 µM Glc-1,6bP, 25°C.

Substrate in data set [2]: O=P(O)(O)OC[C@H]1O[C@H](OP(=O)(O)O)[C@H](O)[C@@H](O)[C@@H]1O
As to the kind of experiment: purified protein. It counts as biochemical, Arabidopsis thaliana. The note with it: 50 mM TEAB pH 7.0, 2 mM MgCl2, Glc-1P as substrate, 25°C, catalytic intermediate, Figure 3 legend prints 4.3, varied: cofactor.

B1: PGM3 (Arabidopsis thaliana) (protein)
chain: MVFKVSTVSTSPIDGQKPGTSGLRKKVKVFKQPNYLENFVQATFNALTAEKVKGATLVVSGDGRYYSKDAVQIIIKMAAANGVRRVWVGKNTLLSTPAVSAVIRERSGADGSKATGAFILTASHNPGGPTEDFGIKYNMENGGPAPESITDKIYENTKTIKEYPIAQDLPNVDISAVGVTSFEGPEGKFDVEVFDPADDYVKLMKSIFDFEAIRKLLSSPKFTFCYDALHGVAGAYAHRIFVEELGAQESALLNCTPKEDFGGGHPDPNLTYAKELVARMGLGKSDTGGEPPEFGAAADGDADRNMILGKRFFVTPSDSVAIIAANAIGAIPYFSSGLKGVARSMPTSAALDVVAKSLNLKFFEVPTGWKFFGNLMDAGMCSVCGEESFGTGSDHIREKDGIWAVLAWMSILAHKNKGNIDGNAKLVSVEDIVRQHWATYGRHYYTRYDYENVDAGKAKELMEHLVKLQSSIPEVNKIVKGIRSDVASVASADEFEYKDPVDGSISKHQGIRYLFEDGSRLVFRLSGTGSEGATIRLYIEQYEKDASKTGRESQEALSPLVDLALKLSKMEEFTGRSAPTVIT
notes: forward primer encodes (tag)HHHHHG-MVFKVSTVS
As to B1, the Km in “purified protein [1]” stood at 90 µM; in the data set “purified protein [2]” it was 4.38 µM.

For orientation: Km means the substrate concentration at which the rate is half of its maximum.
